Columns and labels:
soybean embryos = experiment: Fatty acid composition of transgenic soybean somatic embryos (GC, GC-MS); type: cell-based; settings: for 16:0 / 18:0 / 18:1 / 18:2 / 18:3 / α-Parinaric / Eleostearic / Other: single soybean embryo; for 16:0 / 18:0 / 18:1 / 18:2 / 18:3 / α-Parinaric: % of total oil weight; for Eleostearic: includes cis-trans isomers of α-eleostearic acid (<1.0 wt %); for Other: primarily 20:0, 20:1, 22:0, and 22:1
Method: Gene fusions of the Impatiens balsamina or Momordica charantia cDNAs with the conglycinin promoter and phaseolin termination sequences in vector pKS67 were introduced into soybean embryos using the particle bombardment method of transformation. To induce somatic embryos, cotyledons, 3–5 mm in length dissected from surface sterilized, immature seeds of a soybean cultivar A2872 or JACK-910 were cultured in the light or dark at 26° C. on an appropriate agar medium for 6–10 weeks. Somatic embryos that produce secondary embryos were then excised and placed into a suitable liquid medium. After repeated selection for clusters of somatic embryos that multiplied as early, globular staged embryos, the suspensions were maintained as described below.
Soybean embryogenic suspension cultures were then transformed with the vector pKS67 containing the Impatiens or Momordica cDNA for fatty acid modifying enzymes associated with conjugated double synthesis by the method of particle gun bombardment (Klein et al. (1987) Nature (London) 327:70, U.S. Pat. No. 4,945,050). A DuPont Biolistic™ PDS1000/HE instrument (helium retrofit) was used for these transformations.
Five to seven days post bombardment, the liquid media was exchanged with fresh media, and eleven to twelve days post bombardment with fresh media containing […] hygromycin. This selective media was refreshed weekly. Seven to eight weeks post bombardment, green, transformed tissue was observed growing from untransformed, necrotic embryogenic clusters. Isolated green tissue was removed and inoculated into individual flasks to generate new, clonally propagated, transformed embryogenic suspension cultures. Each new line was treated as an independent transformation event. These suspensions were then subcultured and maintained as clusters of immature embryos.
Transgenic soybean embryos selected and maintained in this manner were analyzed for eleostearic acid and parinaric acid content using methods described in Example 4 (Table 1). Individual embryos expressing either the Impatiens or Momordica fatty acid modifying enzyme for conjugated double bond synthesis were homogenized in 1% (w/v) sodium methoxide in methanol. Fatty acid methyl esters resulting from this transesterification step were analyzed by both GC and GC-MS as described in Example 4. Methyl esters of eleostearic and parinaric acids were identified in transgenic soybean extracts by comparison of retention times and mass spectra with those of fatty acid methyl esters prepared from seeds of Impatiens balsamina and Momordica charantia. […] In soybean embryos expressing the Momordica enzyme, eleostearic acid was detected principally as α-eleostearic acid with lesser amounts of at least two other cis-trans isomers of eleostearic acid. […]

[1] = tested on: Tobacco (Nicotiana tabacum L. cv Xanthi) callus; experiment: Fatty acid analysis (GC, GC-MS) of transgenic tobacco callus expressing the cDNA; type: cell-based; settings: CaMV 35S promoter
Description: The cDNAs encoding fatty acid modifying enzymes associated with conjugated double bond synthesis in seeds of Impatiens balsamina and Momordica charantia were introduced into a plant expression vector designated pML63. Vector pML63 contains the uidA gene (which encodes the GUS enzyme) operably linked to the CaMV35S promoter and 3′ NOS sequence. pML63 is modified from pMH40 to produce a minimal 3′ NOS terminator fragment. pMH 40 is described in WO 98/16650 which was published on Apr. 23, 1998, the disclosure of which are hereby incorporated by reference. Using standard techniques familiar to those skilled in the art, the 770 base pair terminator sequence contained in pMH40 was replaced with a new 3′ NOS terminator sequence comprising nucleotides 1277 to 1556 of the sequence published by Depicker et al. (1982, J. Appl. Genet. 1:561–574). A chimeric gene was constructed comprising cDNAs encoding fatty acid modifying enzymes associated with conjugated double bond synthesis in seeds of Impatiens balsamina and Momordica charantia in sense orientation with respect to the cauliflower mosaic virus 35S promoter that is located 5′ to the cDNA fragment and termination sequences from the nopaline synthase (NOS) that are located 3′ to the cDNA fragment. The cDNAs for the Impatiens polypeptide was introduced in the NcoI and EcoRI sites of the vector pML63. The cDNA for the Momordica polypeptide was introduced into the NcoI and SmaI sites of the vector pML63. The NcoI and EcoRI sites flanking the Impatiens cDNA were generated by PCR amplification of the cDNAs using oligonucleotide primers that contained these restriction sites (SEQ ID NO:7 and SEQ ID NO:8, for the sense and antisense oligonucleotides, respectively). PCR amplification was conducted using the Pfu DNA polymerase. The NcoI site flanking the 5′ end of the Momordica cDNA was generated by PCR amplification in a similar manner (SEQ ID NO:9 and SEQ ID NO:10). The 3′ end of the PCR-generated Momordica cDNA was blunt-ended which allowed for cloning into the SmaI site of the vector pML63. The resulting fusions of the cauliflower mosaic virus 35S promoter with the cDNAs encoding fatty acid modifying enzymes associated with conjugated double bond synthesis in seeds of Impatiens balsamina or Momordica charantia and NOS termination sequences were released from the vector pML63 by digestion with XbaI. The resulting XbaI fragment was ligated into the corresponding site of the binary vector pZS199 The vector pZS199 contains the following elements: (1) the chimeric gene nopaline synthase/neomycin phosphotransferase as a selectable marker for transformed plant cells (Brevan et al. (1984) Nature 304:184–186), (2) the left and right borders of the T-DNA of the Ti plasmid (Brevan et al. (1984) Nucl. Acids Res. 12:8711–8720), (3) the E. coli lacZ-complementing segment (Vieria and Messing (1982) Gene 19:259–267) with unique restriction endonuclease sites for EcoRI, KpnI, BamHI, XbaI and SalI, (4) the bacterial replication origin from the Pseudomonas plasmid pVS1 (Itoh et al. (1984) Plasmid 11:206–220), and (5) the bacterial neomycin phosphotransferase gene from Tn5 (Berg et al. (1975) Proc. Natl. Acad. Sci. U.S.A. 72:3628–3632) as a selectable marker for transformed A. tumefaciens. The nopaline synthase promoter in the plant selectable marker was replaced by the 35S promoter (Odell et al. (1985) Nature, 313:810–813) by a standard restriction endonuclease digestion and ligation strategy.
Gene fusions of the Impatiens balsamina or Momordica charantia cDNAs with the cauliflower mosaic virus 35S promoter and the NOS termination sequences in vector pZS199 were introduced into Agrobacterium tumefaciens strain LBA4404. […]

[2] = soybean embryos, β-conglycinin promoter, highest amount

B1: MomFad2: Momordica charantia fatty acid modifying enzyme associated with conjugated double bond formation, SEQ ID NO:4, cDNA SEQ ID NO:3 (protein, listed as Momordica charantia)
chain: MGGRGAIGVLRNGGGPKKKMGPGQGLGPGERITHARPPFSISQIKKAIPPHCFQRSLRRSFSYLLSDIALVSAFYYVADTYFHRLPHPLLHYLAWPVYWFCQGAVLTGMWGIAHDCGHHAFSDYQLVDDVVGFLIHSLVFVPYFSFKISHRRHHSNTSSVDRDEVFVPKPKAKMPWYFKYLTNPPARVFIIFITLTLGWPMYLTFNISGRYYGRFTSHFDPNSPIFSPKERVLVHISNAGLVATGYLLYRIAMAKGVGWLIRLYGVPLIVLNACVVLITALQHTHPSFPYYDSTEWDWLRGNLVTVDRDYGPIMNRVFHHITDTHVVHHLFPSMPHYNGKEATVAAKRILGEYYQFDGTPIWKAAWREFRECVYVEPDEDDGATSGSSSKGVFWYHNKL
16:0 (soybean embryos; independent transgenic line 1): 6.9 Weight % | 18:0 (soybean embryos; independent transgenic line 1): 2.4 Weight % | 18:1 (soybean embryos; independent transgenic line 1): 43.1 Weight % | 18:2 (soybean embryos; independent transgenic line 1): 24.1 Weight % | 18:3 (soybean embryos; independent transgenic line 1): 3.1 Weight % | α-Parinaric (soybean embryos; independent transgenic line 1): 1.0 Weight % | 16:0 (soybean embryos; independent transgenic line 2): 7.9 Weight % | 18:0 (soybean embryos; independent transgenic line 2): 2.1 Weight % | 18:1 (soybean embryos; independent transgenic line 2): 36.8 Weight % | 18:2 (soybean embryos; independent transgenic line 2): 29.4 Weight % | 18:3 (soybean embryos; independent transgenic line 2): 5.1 Weight % | α-Parinaric (soybean embryos; independent transgenic line 2): 1.0 Weight % | 16:0 (soybean embryos; independent transgenic line 3): 8.4 Weight % | 18:0 (soybean embryos; independent transgenic line 3): 2.3 Weight % | 18:1 (soybean embryos; independent transgenic line 3): 41.9 Weight % | 18:2 (soybean embryos; independent transgenic line 3): 25.1 Weight % | 18:3 (soybean embryos; independent transgenic line 3): 6.1 Weight % | α-Parinaric (soybean embryos; independent transgenic line 3): 1.8 Weight % | Eleostearic (soybean embryos; transgenic line 1): 17.4 Weight % | Other (soybean embryos; transgenic line 1): <2.0 Weight % | Eleostearic (soybean embryos; transgenic line 2): 15.9 Weight % | Other (soybean embryos; transgenic line 2): <2.0 Weight % | Eleostearic (soybean embryos; transgenic line 3): 12.4 Weight % | Other (soybean embryos; transgenic line 3): <2.0 Weight % | eleostearic acid of the total fatty acids (soybean embryos; [2]): ≤ 16.5% | α-parinaric acid of the total fatty acids (soybean embryos; [2]): ≤ 1.5% | eleostearic acid accumulated, relative to total fatty acid [1]: 1.7% | parinaric acid accumulated, relative to total fatty acid [1]: 1.1%

B2: ImpFad2: Impatiens balsamina fatty acid modifying enzyme associated with conjugated double bond formation, SEQ ID NO:2, cDNA SEQ ID NO:1 (protein, listed as Impatiens balsamina)
chain: MGEVGPTNRTKTKLDKQQESENRVPHEPPPFTLSDLKKAIPPHCFERSLVKSFYHVIHDIIILSFFYYVAANYIPMLPQNLRYVAWPIYWAIQGCVQLGILVLGHECGHHAFSDYQWVDDMVGFVLHSSQLIPYFSWKHSHRRHHSNTASIERDEVYPPAYKNDLPWFAKYLRNPVGRFLMIFGALLFGWPSYLLFNANGRLYDRFASHYDPQSPIFNNRERLQVIASDVGLVFAYFVLYKIALAKGFVWLICVYGVPYVILNGLIVLITFLQHTHPNLPRYDLSEWDWLRGALSTVDRDYGMLNKVFHNVTDTHLVHHLFTTMPHYRAKEATEVIKPILGDYYKFDDTPFLKALWKDMGKCIYVESDVPGKNKGVYWYNNDI
16:0 (soybean embryos; independent transgenic line 1): 13.3 Weight % | 18:0 (soybean embryos; independent transgenic line 1): 4.2 Weight % | 18:1 (soybean embryos; independent transgenic line 1): 20.8 Weight % | 18:2 (soybean embryos; independent transgenic line 1): 46.3 Weight % | 18:3 (soybean embryos; independent transgenic line 1): 9.2 Weight % | α-Parinaric (soybean embryos; independent transgenic line 1): 2.2 Weight % | 16:0 (soybean embryos; independent transgenic line 2): 13.2 Weight % | 18:0 (soybean embryos; independent transgenic line 2): 2.5 Weight % | 18:1 (soybean embryos; independent transgenic line 2): 12.2 Weight % | 18:2 (soybean embryos; independent transgenic line 2): 53.8 Weight % | 18:3 (soybean embryos; independent transgenic line 2): 12.5 Weight % | α-Parinaric (soybean embryos; independent transgenic line 2): 2.0 Weight % | 16:0 (soybean embryos; independent transgenic line 3): 13.5 Weight % | 18:0 (soybean embryos; independent transgenic line 3): 3.1 Weight % | 18:1 (soybean embryos; independent transgenic line 3): 11.1 Weight % | 18:2 (soybean embryos; independent transgenic line 3): 53.0 Weight % | 18:3 (soybean embryos; independent transgenic line 3): 17.3 Weight % | α-Parinaric (soybean embryos; independent transgenic line 3): 1.0 Weight % | Eleostearic (soybean embryos; transgenic line 1): 3.0 Weight % | Other (soybean embryos; transgenic line 1): <1.0 Weight % | Eleostearic (soybean embryos; transgenic line 2): 2.8 Weight % | Other (soybean embryos; transgenic line 2): <1.0 Weight % | Eleostearic (soybean embryos; transgenic line 3): 0.6 Weight % | Other (soybean embryos; transgenic line 3): <1.0 Weight % | α-eleostearic acid of the total fatty acids (soybean embryos; [2]): ≤ 3% | α-parinaric acid of the total fatty acids (soybean embryos; [2]): ≤ 2% | eleostearic acid accumulated, relative to total fatty acid [1]: 3.4% | parinaric acid accumulated, relative to total fatty acid [1]: 1.7%

Source: US7244563B2, “Genes for plant fatty acid modifying enzymes associated with conjugated double bond formation” (E. I. du Pont de Nemours and Company, priority 2002, dated 2007)
